Test results from paper PMC2646141.

B1: wild type APOBEC3G prey [human] / wild type APOBEC3G bait [human] (parent)
chain 1: MKPHFRNTVERMYRDTFSYNFYNRPILSRRNTVWLCYEVKTKGPSRPPLDAKIFRGQVYSELKYHPEMRFFHWFSKWRKLHRDQEYEVTWYISWSPCTKCTRDMATFLAEDPKVTLTIFVARLYYFWDPDYQEALRSLCQKRDGPRATMKIMNYDEFQHCWSKFVYSQRELFEPWNNLPKYYILLHIMLGEILRHSMDPPTFTFNFNNEPWVRGRHETYLCYEVERMHNDTWVLLNQRRGFLCNQAPHKHGFLEGRHAELCFLDVIPFWKLDLDQDYRVTCFTSWSPCFSCAQEMAKFISKNKHVSLCIFTARIYDDQGRCQEGLRTLAEAGAKISIMTYSEFKHCWDTFVDHQGCPFQPWDGLDEHSQDLSGRLRAILQNQEN
chain 2: B1 chain 1

Variants of: B1
Test: yeast two-hybrid (β-galactosidase activity)
Details: with wild type APOBEC3G (A3G) bait [human]; parent: 0.5; read off a plot

Row | Variant | response [OD540]
1 | chain 1 Y315A | 0.59
2 | chain 1 Y315L | 0.5
3 | chain 1 Y124A | 0.062
4 | chain 1 Y124F | 0.05

Continued, values first:

Row | response [OD540] | Variant
5 | 0.34 | chain 1 Y315F
6 | 0.042 | chain 1 Y124L
7 | 0.038 | chain 1 W127A
8 | 0.031 | chain 1 W127Y
